The test has as its target Ld class I MHC molecule of the mouse, properly folded form detected by mAb 30-5-7 (mouse). Briefly: radioligand binding + co-IP.

Sequence of Ld class I MHC molecule of the mouse, properly folded form detected by mAb 30-5-7 (mouse) (P01897 25-362): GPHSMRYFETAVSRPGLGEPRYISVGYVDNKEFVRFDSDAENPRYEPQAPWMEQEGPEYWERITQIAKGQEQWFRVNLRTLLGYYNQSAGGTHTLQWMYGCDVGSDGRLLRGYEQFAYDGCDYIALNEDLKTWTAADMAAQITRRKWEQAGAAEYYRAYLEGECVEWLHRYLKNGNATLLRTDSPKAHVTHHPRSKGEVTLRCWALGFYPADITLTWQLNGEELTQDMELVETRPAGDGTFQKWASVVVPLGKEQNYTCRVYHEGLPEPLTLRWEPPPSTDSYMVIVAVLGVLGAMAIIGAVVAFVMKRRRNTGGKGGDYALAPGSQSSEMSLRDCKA

On to murine CMV peptide (pp89, 168-176), for which the percent of the FCS control (cells in serum-free medium during the 4 h assay) is 85% and the percent of the surface plus lysate peptide binding accounted for by surface Ld stood at 80%.

These data come from paper PMC2119095.
